The values below come from PMC6524640 (2019).

No end group written: not given here.

In this experiment the target is calmodulin (Homo sapiens, UniProt P0DP23). Nature of the experiment: NMR titration.

As for HFGKTGRASDQR (not fully specified) [CEACAM1 long form peptide LFWT], the Kd (usually the equilibrium constant for the complex coming apart) amounted to 760 µM.
HFGKTGSSGPLQ (not fully specified) [CEACAM1 short form peptide SFWT]: the affinity, expressed as Kd, was 1440 µM.
